According to the RNAGym collection of RNA variant scans (doi:10.7554/elife.90254):

B1: OR4K15 (parent)
chain: GUUAACGGUCAUAGGCCAUGGAAACUAGGAGCACCAUUUCGCUGCCAGUGAAGAAAUGAACAAAGAAAAUCUGGGCCAGGCAGGCAUCAAAAGAAAUAGUCUUGCGCUCAACCAGAAAGUCUGUAAUCAUUUUAAGGGUA

Variants of: B1
Test: self-cleavage, relative activity (ratio to wild type); higher = more cleavage; in vitro, sequencing; the parent is a self-cleaving ribozyme

Compared with U43G A54C, U43C A66G is lower in self-cleavage: 1.71 for the first, 1.29 for the second.

Compared with U43C U103G, U43C A82G is higher in self-cleavage: 0.01 for the first, 0.36 for the second.

Going from G41A A62G to U39G A51G, the self-cleavage falls from 2.53 to 1.75.

Going from U39C C61U to U43A U130C, the self-cleavage falls from 2.41 to 1.44.

Going from G44A U124C to G44A U124A, the self-cleavage rises from 0.45 to 1.15.

Going from G41U A117G to C45U A129G, the self-cleavage falls from 1.93 to 1.16.

Going from U43A U57C to U43A U49C, the self-cleavage rises from 1.15 to 1.49.

Going from G44U A59G to U39G A64G, the self-cleavage falls from 1.67 to 1.12.

First: G44C A82U
Second: U43C A114U
The self-cleavage of the first is higher: 0.27 for the first, 0.05 for the second.

Compared with U43C A114C, U43C A86G is higher in self-cleavage: 0.03 for the first, 1.32 for the second.

Going from G41A A110G to U43C G136A, the self-cleavage rises from 0.12 to 1.75.

Compared with U43A U122G, C42G U43A is lower in self-cleavage: 2.29 for the first, 1.91 for the second.

Going from G44A A47G to C40G A134G, the self-cleavage falls from 1.27 to 0.82.

First: U43C A98G
Second: U39C U97A
The self-cleavage of the first is lower: 0.44 for the first, 1.16 for the second.

Compared with U39C C81G, U39C U131C is higher in self-cleavage: 0.16 for the first, 1.05 for the second.

Compared with U43C G138A, C40G A94G is lower in self-cleavage: 2.16 for the first, 0.63 for the second.

Compared with C40U A126U, U43C A63C is higher in self-cleavage: 1.31 for the first, 2.53 for the second.

Compared with U39C G106A, U43C C107U is higher in self-cleavage: 0.01 for the first, 0.02 for the second.

Compared with U43C A116U, U43C A116G is higher in self-cleavage: 0.46 for the first, 0.53 for the second.

First: G44U A66U
Second: U39C G138A
The self-cleavage of the first is higher: 2.02 for the first, 1.78 for the second.

Going from C45G A51G to C40A U49C, the self-cleavage rises from 1.57 to 1.85.

Going from U43C U102A to U43C U102C, the self-cleavage rises from 1 to 2.15.

Compared with U43G, U43C is lower in self-cleavage: 1.7 for the first, 1.29 for the second.

Compared with U43A, G41A A125C is lower in self-cleavage: 1.58 for the first, 0.19 for the second.

Going from G41A A125G to C45A U131A, the self-cleavage rises from 0.77 to 1.29.

First: C40A A78G
Second: U43C U127C
The self-cleavage of the first is lower: 0.32 for the first, 0.89 for the second.

Compared with C45G A116G, C42A U120A is higher in self-cleavage: 0.77 for the first, 1.7 for the second.

Going from U43G A66G to U43C A59C, the self-cleavage falls from 1.69 to 0.12.

Compared with U43C A59U, U43C U131C is lower in self-cleavage: 1.48 for the first, 1.36 for the second.

First: C40U U120C
Second: U39C C76A
The self-cleavage of the first is higher: 1.32 for the first, 0.13 for the second.

First: G41C A67U
Second: G44C C46A
The self-cleavage of the first is higher: 1.8 for the first, 1.19 for the second.

Going from G44A A63G to G44A A63C, the self-cleavage rises from 0.71 to 2.07.

First: G44A U122C
Second: C42U U108A
The self-cleavage of the first is higher: 1.67 for the first, 0 for the second.

Going from U43A A67G to U39C U57A, the self-cleavage falls from 1.88 to 0.92.

Going from U39C U57C to G44A G84U, the self-cleavage falls from 1.64 to 0.93.

Compared with G41A A54G, C40U U130C is lower in self-cleavage: 1.09 for the first, 0.46 for the second.

Going from U43A U100C to G44A A54G, the self-cleavage falls from 2.43 to 1.57.

Compared with G41U A66G, C40A A111G is lower in self-cleavage: 1.11 for the first, 0.02 for the second.

Going from C40U U132A to G44C, the self-cleavage rises from 1.27 to 1.33.

Going from G44U to G44A, the self-cleavage falls from 1.91 to 1.53.

Compared with G41A U87A, C45G U131C is lower in self-cleavage: 1.71 for the first, 0.41 for the second.

Going from C42U U139A to U43C A51G, the self-cleavage falls from 2 to 1.14.

Going from C40U A114G to G44U A95G, the self-cleavage rises from 0.5 to 1.73.

Compared with G41U A60G, C45G U102C is lower in self-cleavage: 1.9 for the first, 1.48 for the second.

Compared with C45U U49G, C45A A98U is lower in self-cleavage: 1.93 for the first, 1.6 for the second.

Going from G41U A52G to C45A A129G, the self-cleavage falls from 1.47 to 0.87.

Going from C42U C105U to G41C A86C, the self-cleavage rises from 0.05 to 0.81.

Compared with U39C C71A, G41U A68G is higher in self-cleavage: 0.38 for the first, 1.46 for the second.

First: U43C A69G
Second: C45U G119A
The self-cleavage of the first is lower: 0.94 for the first, 1.99 for the second.

Compared with C40G G74A, U43A A135U is higher in self-cleavage: 0.29 for the first, 2.21 for the second.

Compared with U43A A135C, U43A A135G is higher in self-cleavage: 1.29 for the first, 1.91 for the second.

Going from U43C A135G to U43C A135U, the self-cleavage falls from 2.01 to 0.71.

Going from U43C A55G to U39G A92G, the self-cleavage rises from 1.07 to 1.57.

Going from U43C A54G to U43C A54U, the self-cleavage falls from 1.4 to 0.85.

Compared with U39C U43C, U39C U43A is higher in self-cleavage: 1.57 for the first, 1.92 for the second.

Compared with C40U A68G, U39C C77U is lower in self-cleavage: 1.84 for the first, 1.75 for the second.

Compared with U39C C77A, C45U A86U is higher in self-cleavage: 0.77 for the first, 1.17 for the second.

Compared with U39C G136A, G44A A110G is lower in self-cleavage: 2.38 for the first, 0.14 for the second.

First: U43C A110G
Second: C42U A54G
The self-cleavage of the first is lower: 0.15 for the first, 1.96 for the second.

First: G44A A82U
Second: C42G A111G
The self-cleavage of the first is higher: 0.23 for the first, 0 for the second.

Compared with C40U A55G, U39C G48A is lower in self-cleavage: 1.67 for the first, 1.14 for the second.

Going from U43C C112U to U43C A125G, the self-cleavage rises from 0 to 0.53.

First: U43C A125U
Second: U43A A47U
The self-cleavage of the first is higher: 1.56 for the first, 1.13 for the second.

Going from G41A A91G to G44A U102A, the self-cleavage rises from 1.55 to 1.56.

Going from G44A U102C to C42U A116G, the self-cleavage falls from 2.14 to 0.68.

First: U43C A91U
Second: U39G
The self-cleavage of the first is higher: 1.88 for the first, 0.79 for the second.

First: U39C U49A
Second: U43C U57G
The self-cleavage of the first is higher: 1.41 for the first, 0.87 for the second.

First: G41U A55G
Second: C40U U103C
The self-cleavage of the first is higher: 2.29 for the first, 0.96 for the second.

First: G41A U124C
Second: G44A A64G
The self-cleavage of the first is lower: 1.02 for the first, 1.36 for the second.

First: U39C G79U
Second: U39C C107A
The self-cleavage of the first is higher: 0.1 for the first, 0.03 for the second.

Compared with C40U A52G, U39C C85G is lower in self-cleavage: 1.54 for the first, 0.99 for the second.

Going from G41C A52U to C45G, the self-cleavage falls from 2.16 to 1.37.

First: C45U
Second: C45A
The self-cleavage of the first is higher: 1.72 for the first, 1.6 for the second.

Compared with G41A A56G, C42U is lower in self-cleavage: 2.07 for the first, 1.44 for the second.

Going from C42G to C42A, the self-cleavage falls from 1.62 to 0.45.

Going from G41A U70C to G41A A126G, the self-cleavage rises from 1.12 to 1.48.

Compared with U39C U87C, C42G A47U is lower in self-cleavage: 1.31 for the first, 1.02 for the second.

Compared with U43A G74C, G44A G83A is higher in self-cleavage: 0.23 for the first, 1.24 for the second.

First: U43C A90U
Second: C40U U108A
The self-cleavage of the first is higher: 1.83 for the first, 0.01 for the second.

Going from U39C U108C to C40U U57C, the self-cleavage rises from 0.02 to 1.07.

Going from C40U A59G to U43C C85U, the self-cleavage falls from 2.06 to 1.32.

Going from G44A U131C to C40A A117G, the self-cleavage rises from 1.53 to 2.53.

Going from U43A U139C to U43A U139G, the self-cleavage falls from 2.42 to 2.1.

U39C U127C showed a self-cleavage of 1.18.
